Results reported in paper PMC3134462 (2011).
Where no end group is shown, it is not given here. [ ]: non-standard residue; d: D form. pY = N[C@@H](Cc1ccc(OP(=O)(O)O)cc1)C(=O)O

Columns and labels:
[1] = target: T1, DLC-1 peptide (nonphosphorylated) (Homo sapiens); assay: SPR
T1 chain: CSRLSIYDNVPG

DLC-1 peptide (pY442) = target: T2, DLC-1 peptide (pY442) (Homo sapiens); assay: SPR
T2 chain: CSRLSI[pY]DNVPG

Kd [1]: ~248 nM | Kd (DLC-1 peptide (pY442)): ~31 nM
B1: Tensin2 SH2 domain 1135-1248 (protein)
chain: DTSKFWYKPHLSRDQAIALLKDKDPGAFLIRDSHSFQGAYGLALKVATPPPSAQPWKGDPVEQLVRHFLIETGPKGVKIKGCPSEPYFGSLSALVSQHSISPISLPCCLRIPSK
